Measured values from patent US20220411483A1 (Chugai, published 2022).

T1: FcγRIIa R type extracellular domain with C-terminal His tag (human, UniProt P12318 34-217)
T1 construct: extracellular domain; also called FcgRIIaR; not shown: His tag at the C terminus
T1 sequence (looked up): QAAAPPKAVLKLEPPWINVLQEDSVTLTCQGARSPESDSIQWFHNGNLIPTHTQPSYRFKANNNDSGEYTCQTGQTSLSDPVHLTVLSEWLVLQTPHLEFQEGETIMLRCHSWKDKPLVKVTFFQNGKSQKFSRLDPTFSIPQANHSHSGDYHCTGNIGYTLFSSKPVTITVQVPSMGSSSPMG

T2: FcγRIIa H type extracellular domain with C-terminal His tag (human, UniProt P12318 34-217)
T2 construct: extracellular domain; also called FcgRIIaH; not shown: His tag at the C terminus
T2 sequence (looked up): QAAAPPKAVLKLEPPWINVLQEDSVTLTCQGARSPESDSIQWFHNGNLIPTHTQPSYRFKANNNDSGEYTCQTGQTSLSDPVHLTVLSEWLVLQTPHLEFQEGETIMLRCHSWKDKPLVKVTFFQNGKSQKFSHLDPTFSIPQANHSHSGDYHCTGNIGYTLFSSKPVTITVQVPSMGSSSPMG

T3: FcγRIIb extracellular domain with C-terminal His tag (human, UniProt P31994 43-217)
T3 construct: extracellular domain; also called FcgRIIb; not shown: His tag at the C terminus
T3 sequence (looked up): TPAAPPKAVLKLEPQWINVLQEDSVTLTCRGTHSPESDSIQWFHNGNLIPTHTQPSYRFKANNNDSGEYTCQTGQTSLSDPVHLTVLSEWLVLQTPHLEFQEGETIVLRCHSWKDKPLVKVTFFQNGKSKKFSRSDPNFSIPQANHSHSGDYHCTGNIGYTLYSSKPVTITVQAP


How the values were obtained:
[1] = target: T4, FcγRIa extracellular domain with C-terminal His tag (human, UniProt P12314 16-292); experiment: SPR, antibody captured, FcgR analyte
T4 construct: also called FcgRIa; CD64; not shown: His tag at the C terminus

[2] = target: T1, FcγRIIa R type extracellular domain …; experiment: SPR, antibody captured, FcgR analyte
[3] = target: T2, FcγRIIa H type extracellular domain …; experiment: SPR, antibody captured, FcgR analyte
[4] = target: T3, FcγRIIb extracellular domain with …; experiment: SPR, antibody captured, FcgR analyte
[5] = target: T1, FcγRIIa R type extracellular domain …; experiment: SPR; KD of IL6R-B3/IL6R-L divided by KD of variant
[6] = target: T3, FcγRIIb extracellular domain with …; experiment: SPR; KD of IL6R-B3/IL6R-L divided by KD of variant

T4 sequence (P12314 16-292): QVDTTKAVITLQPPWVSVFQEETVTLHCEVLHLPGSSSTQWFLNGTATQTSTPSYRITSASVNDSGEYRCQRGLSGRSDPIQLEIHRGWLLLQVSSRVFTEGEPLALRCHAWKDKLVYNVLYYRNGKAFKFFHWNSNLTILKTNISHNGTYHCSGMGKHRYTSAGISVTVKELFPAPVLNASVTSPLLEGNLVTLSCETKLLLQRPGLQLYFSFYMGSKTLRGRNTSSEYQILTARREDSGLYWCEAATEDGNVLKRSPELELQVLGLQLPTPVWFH

Binder | Kd [1] | Kd [2] | Kd [3] | Kd [4] | Relative FcgRIIaR-binding Activity [5] | Relative FcgRIIb-binding Activity [6]
IL6R-BP497/IL6R-L (antibody, human IgG1, kappa, name in EU numbering, human IgG1) heavy: QVQLQESGPGLVKPSETLSLTCAVSGHSISHDHAWSWVRQPPGEGLEWIGFISYSGITNYNPSLQGRVTISRDNSKNTLYLQMNSLRAEDTAVYYCARSLARTTAMDYWGEGTLVTVSSASTKGPSVFPLAPSSKSTSGGTAALGCLVKDYFPEPVTVSWNSGALTSGVHTFPAVLQSSGLYSLSSVVTVPSSSLGTQTYICNVNHKPSNTKVDKKVEPKSCDKTHTCPPCPAPDLLGDDSVFLFPPKPKDTLMISRTPEVTCVVIDVAEEDGEVKFNWYVDGVEVHNAKTKPREEQYNSTYRVVSVLTVLHQDWLNGKEYKCKVSNKGLPRPIEKTISKAKGQPREPQVYTLPPSRDELTKNQVSLTCLVKGFYPSDIAVEWESNGQPENNYKTTPPVLDSDGSFFLYSKLTVDKSRWQQGNVFSCSVMHEALHNHYTQESLSLSP light: not shown | 2.1 nM | 85 nM | 960 nM | 4.1 nM | 12.6 | 761
IL6R-BP503/IL6R-L (antibody, human IgG1, kappa, name in EU numbering, human IgG1) heavy: QVQLQESGPGLVKPSETLSLTCAVSGHSISHDHAWSWVRQPPGEGLEWIGFISYSGITNYNPSLQGRVTISRDNSKNTLYLQMNSLRAEDTAVYYCARSLARTTAMDYWGEGTLVTVSSASTKGPSVFPLAPSSKSTSGGTAALGCLVKDYFPEPVTVSWNSGALTSGVHTFPAVLQSSGLYSLSSVVTVPSSSLGTQTYICNVNHKPSNTKVDKKVEPKSCDKTHTCPPCPAPDLLGDDSVFLFPPKPKDTLMISRTPEVTCVVIDVAEEDGEVKFNWYVDGVEVHNAKTKPREEQDNSTYRVVSVLTVLHQDWLNGKEYKCKVSNKGLPRPIEKTISKAKGQPREPQVYTLPPSRDELTKNQVSLTCLVKGFYPSDIAVEWESNGQPENNYKTTPMVLDSDGSFFLYSKLTVDKSRWQQGNVFSCSVMHEALHNHYTQESLSLSP light: not shown | 1.2 nM | 57 nM | 860 nM | 1.7 nM | 19 | 1810
IL6R-BP498/IL6R-L (antibody, human IgG1, kappa, name in EU numbering, human IgG1) heavy: QVQLQESGPGLVKPSETLSLTCAVSGHSISHDHAWSWVRQPPGEGLEWIGFISYSGITNYNPSLQGRVTISRDNSKNTLYLQMNSLRAEDTAVYYCARSLARTTAMDYWGEGTLVTVSSASTKGPSVFPLAPSSKSTSGGTAALGCLVKDYFPEPVTVSWNSGALTSGVHTFPAVLQSSGLYSLSSVVTVPSSSLGTQTYICNVNHKPSNTKVDKKVEPKSCDKTHTCPPCPAPDLLGDDSVFLFPPKPKDTLMISRTPEVTCVVIDVAEEDGEVKFNWYVDGVEVHNAKTKPREEQYNSTYRVVSVLTVLHQDWLNGKEYKCKVSNKALPRPIEKTISKAKGQPREPQVYTLPPSRDELTKNQVSLTCLVKGFYPSDIAVEWESNGQPENNYKTTPLVLDSDGSFFLYSKLTVDKSRWQQGNVFSCSVMHEALHNHYTQESLSLSP light: not shown | 1.3 nM | 51 nM | 930 nM | 1.7 nM | 21.3 | 1870
IL6R-BP511/IL6R-L (antibody, human IgG1, kappa, name in EU numbering, human IgG1) heavy: QVQLQESGPGLVKPSETLSLTCAVSGHSISHDHAWSWVRQPPGEGLEWIGFISYSGITNYNPSLQGRVTISRDNSKNTLYLQMNSLRAEDTAVYYCARSLARTTAMDYWGEGTLVTVSSASTKGPSVFPLAPSSKSTSGGTAALGCLVKDYFPEPVTVSWNSGALTSGVHTFPAVLQSSGLYSLSSVVTVPSSSLGTQTYICNVNHKPSNTKVDKKVEPKSCDKTHTCPPCPAPELLGDDSVFLFPPKPKDTLMISRTPEVTCVVIDVAEEDGPVKFNWYVDGVEVHNAKTKPREEQDNSTYRVVSVLTVLHQDWLNGKEYKCKVSNKALPRPIEKTISKAKGQPREPQVYTLPPSRDELTKNQVSLTCLVKGFYPSDIAVEWESNGQPENNYKTTPPVLDSDGSFFLYSKLTVDKSRWQQGNVFSCSVMHEALHNHYTQESLSLSP light: not shown | 6 nM | 180 nM | 4300 nM | 3.5 nM | 6.1 | 888
IL6R-BP533/IL6R-L (antibody, human IgG1, kappa, name in EU numbering, human IgG1) heavy: QVQLQESGPGLVKPSETLSLTCAVSGHSISHDHAWSWVRQPPGEGLEWIGFISYSGITNYNPSLQGRVTISRDNSKNTLYLQMNSLRAEDTAVYYCARSLARTTAMDYWGEGTLVTVSSASTKGPSVFPLAPSSKSTSGGTAALGCLVKDYFPEPVTVSWNSGALTSGVHTFPAVLQSSGLYSLSSVVTVPSSSLGTQTYICNVNHKPSNTKVDKKVEPKSCDKTHTCPPCPAPDLLGDDSVFLFPPKPKDTLMISRTPEVTCVVIDVGEEDGEVKFNWYVDGVEVHNAKTKPREEQDNSTYRVVSVLTVLHQDWLNGKEYKCKVSNKALPRPIEKTISKAKGQPREPQVYTLPPSRDELTKNQVSLTCLVKGFYPSDIAVEWESNGQPENNYKTTPLVLDSDGSFFLYSKLTVDKSRWQQGNVFSCSVMHEALHNHYTQESLSLSP light: not shown | 7.7 nM | 120 nM | 2600 nM | 4.1 nM | 9 | 754

The next lines start with the values.

Kd [1] | Kd [2] | Kd [3] | Kd [4] | Relative FcgRIIaR-binding Activity [5] | Relative FcgRIIb-binding Activity [6] | Binder
2.1 nM | 110 nM | 1300 nM | 3.7 nM | 9.9 | 837 | IL6R-BP502/IL6R-L (antibody, human IgG1, kappa, name in EU numbering, human IgG1) heavy: QVQLQESGPGLVKPSETLSLTCAVSGHSISHDHAWSWVRQPPGEGLEWIGFISYSGITNYNPSLQGRVTISRDNSKNTLYLQMNSLRAEDTAVYYCARSLARTTAMDYWGEGTLVTVSSASTKGPSVFPLAPSSKSTSGGTAALGCLVKDYFPEPVTVSWNSGALTSGVHTFPAVLQSSGLYSLSSVVTVPSSSLGTQTYICNVNHKPSNTKVDKKVEPKSCDKTHTCPPCPAPDLLGDDSVFLFPPKPKDTLMISRTPEVTCVVIDVAEEDGEVKFNWYVDGVEVHNAKTKPREEQDNSTYRVVSVLTVLHQDWLNGKEYKCKVSNKGLPRPIEKTISKAKGQPREPQVYTLPPSRDELTKNQVSLTCLVKGFYPSDIAVEWESNGQPENNYKTTPPVLDSDGSFFLYSKLTVDKSRWQQGNVFSCSVMHEALHNHYTQESLSLSP light: not shown
1.2 nM | 49 nM | 1000 nM | 1.5 nM | 21.9 | 2120 | IL6R-BP499/IL6R-L (antibody, human IgG1, kappa, name in EU numbering, human IgG1) heavy: QVQLQESGPGLVKPSETLSLTCAVSGHSISHDHAWSWVRQPPGEGLEWIGFISYSGITNYNPSLQGRVTISRDNSKNTLYLQMNSLRAEDTAVYYCARSLARTTAMDYWGEGTLVTVSSASTKGPSVFPLAPSSKSTSGGTAALGCLVKDYFPEPVTVSWNSGALTSGVHTFPAVLQSSGLYSLSSVVTVPSSSLGTQTYICNVNHKPSNTKVDKKVEPKSCDKTHTCPPCPAPDLLGDDSVFLFPPKPKDTLMISRTPEVTCVVIDVAEEDGEVKFNWYVDGVEVHNAKTKPREEQDNSTYRVVSVLTVLHQDWLNGKEYKCKVSNKALPRPIEKTISKAKGQPREPQVYTLPPSRDELTKNQVSLTCLVKGFYPSDIAVEWESNGQPENNYKTTPLVLDSDGSFFLYSKLTVDKSRWQQGNVFSCSVMHEALHNHYTQESLSLSP light: not shown
